# Measured values from PMC6957486.
# Key:
# [1] = molecular target: photosystem I (PSI) core from H. hongdechloris grown under white light, one monomer of the trimer (Halomicronema hongdechloris); test: cryo-EM structure; single particle analysis of PSI trimers purified whole from thylakoid membranes; 50 mM MES (pH 6.0), 5 mM CaCl2, 0.2-2.0% sucrose, 0.01% β-DDM; grids washed without sucrose and β-DDM; 2.35 Å (white PSI) and 2.41 Å (far-red PSI)
# [2] = molecular target: photosystem I (PSI) core from H. hongdechloris grown under far-red light, one monomer of the trimer (Halomicronema hongdechloris); test: as above
stoichiometry N [1],stoichiometry N [2],Substance
3,,"photosystem I (PSI) core from H. hongdechloris grown under white light, one monomer of the trimer (from UniProt A0A1Z3HPE3 1-81; A0A1Z3HHI7 1-142; A0A1Z3HI16 1-68) (complex)"
,3,"photosystem I (PSI) core from H. hongdechloris grown under far-red light, one monomer of the trimer (from UniProt A0A1Z3HPE3 1-81; A0A1Z3HHI7 1-142; A0A1Z3HI16 1-68; A0A1Z3HR36 1-96) (complex)"
